Assay results published in FireProtDB (doi:10.1016/j.bpj.2013.08.038).
“And” between values parts separate entries of the source, which are not always exact repeats. Identical values can stand only once.

Settings: Pseudomonas aeruginosa (strain ATCC 15692 / DSM 22644 / CIP 104116 / JCM 14847 / LMG 12228 / 1C / PRS 101 / PAO1), pH 7, CD, transition: 2, reversible: yes, whole UniProt chain shown; for denaturant m value / unfolding free energy: 25 °C, GdnHCl; for Tm / unfolding enthalpy (calorimetric): Thermal

B1: Azurin wild type, P00282 (protein)
chain: MLRKLAAVSLLSLLSAPLLAAECSVDIQGNDQMQFNTNAITVDKSCKQFTVNLSHPGNLPKNVMGHNWVLSTAADMQGVVTDGMASGLDKDYLKPDDSRVIAHTKLIGSGEKDSVTFDVSKLKEGEQYMFFCTFPGHSALMKGTLTLK
Dextran 20 50 mg/ml
  denaturant m value: 4.99 kcal/mol/M
  Tm: 64 °C
  unfolding enthalpy (calorimetric): 112 kcal/mol
Dextran 20 100 mg/ml
  denaturant m value: 4.99 kcal/mol/M and 4.87 kcal/mol/M
  unfolding free energy: 8.71 kcal/mol
  Tm: 65 °C
  unfolding enthalpy (calorimetric): 114 kcal/mol
Dextran 20 150 mg/ml
  denaturant m value: 4.68 kcal/mol/M
  Tm: 65 °C
  unfolding enthalpy (calorimetric): 115 kcal/mol
Dextran 20 200 mg/ml
  denaturant m value: 4.66 kcal/mol/M
  Tm: 66 °C
  unfolding enthalpy (calorimetric): 120 kcal/mol
Dextran20 200 mg/ml
  denaturant m value: 4.66 kcal/mol/M
  Tm: 66 °C
Dextran 20 250 mg/ml
  denaturant m value: 4.49 kcal/mol/M
  unfolding free energy: 9.29 kcal/mol
  Tm: 67 °C
  unfolding enthalpy (calorimetric): 107 kcal/mol
Dextran 20 300 mg/ml
  denaturant m value: 4.9 kcal/mol/M
  unfolding free energy: 9.65 kcal/mol
Dextran 40 200 mg/ml
  denaturant m value: 5.11 kcal/mol/M
  unfolding free energy: 8.95 kcal/mol
  Tm: 66 °C
Dextran 40 250 mg/ml
  denaturant m value: 4.08 kcal/mol/M
  unfolding free energy: 9.5 kcal/mol
Dextran 40 300 mg/ml
  denaturant m value: 4.68 kcal/mol/M
  unfolding free energy: 9.65 kcal/mol
Dextran 70 100 mg/ml
  denaturant m value: 4.9 kcal/mol/M
  unfolding free energy: 8.59 kcal/mol
  Tm: 65 °C
Dextran 70 200 mg/ml
  denaturant m value: 4.73 kcal/mol/M
  unfolding free energy: 8.86 kcal/mol
  Tm: 68 °C
Dextran 70 300 mg/ml
  denaturant m value: 4.68 kcal/mol/M
  unfolding free energy: 9.65 kcal/mol
Ficoll 70 50 mg/ml
  denaturant m value: 5.09 kcal/mol/M
  Tm: 64 °C
  unfolding enthalpy (calorimetric): 117 kcal/mol
Ficoll 70 100 mg/ml
  denaturant m value: 4.97 kcal/mol/M
  Tm: 64 °C
  unfolding enthalpy (calorimetric): 117 kcal/mol
Ficoll 70 150 mg/ml
  denaturant m value: 4.46 kcal/mol/M
  Tm: 65 °C
  unfolding enthalpy (calorimetric): 118 kcal/mol
Ficoll 70 200 mg/ml
  denaturant m value: 4.92 kcal/mol/M
  Tm: 65 °C
  unfolding enthalpy (calorimetric): 117 kcal/mol
Ficoll 70 250 mg/ml
  denaturant m value: 4.94 kcal/mol/M
  Tm: 65 °C
  unfolding enthalpy (calorimetric): 113 kcal/mol
Ficoll 70 300 mg/ml
  denaturant m value: 5.16 kcal/mol/M
  denaturant m value: 4.92 kcal/mol/M
